Experimental findings from paper PMC8646365 are described below.

The assay addresses cancer-testis antigen Ny-ESO-1 peptide on HLA-A*02:01 (human). As to the kind of experiment: NFAT-luciferase, TCR-KO CD8+ Jurkat.

Regarding 1G4_a95LY TCR, the EC50 of peptide came out at 50 pM.
